Data taken from paper PMC13035853, “Mechanism of beta-arrestin 1 mediated Src activation via Src SH3 domain revealed by cryo-electron microscopy” (Nature Communications, 2026).

Target: SH3 domain of Src (residues 83-141), wild type, with C-terminal FLAG-tag (chicken, UniProt P00523 83-141)
Assay: bimane fluorescence; as a10, for the pair of SH3 (250 nM) and βarr1 V70C-mBr (20 nM), both purified; read-out is the loss of the V2R-induced rise of bimane fluorescence
Details: both partners purified

binding result: binds
B1: βarr1-MC-393 V70C labeled with monobromobimane (natural protein, rat, UniProt P29066 1-393, looked up)
chain: MGDKGTRVFKKASPNGKLTVYLGKRDFVDHIDLVDPVDGVVLVDPEYLKERRVYVTLTAAFRYGREDLDCLGLTFRKDLFVANVQSFPPAPEDKKPLTRLQERLIKKLGEHAYPFTFEIPPNLPSSVTLQPGPEDTGKAIGVDYEVKAFVAENLEEKIHKRNSVRLVIRKVQYAPERPGPQPTAETTRQFLMSDKPLHLEASLDKEIYYHGEPISVNVHVTNNTNKTVKKIKISVRQYADIVLFNTAQYKVPVAMEEADDTVAPSSTFSKVYTLTPFLANNREKRGLALDGKLKHEDTNLASSTLLREGANREILGIIVSYKVKVKLVVSRGGLLGDLASSDVAVELPFTLMHPKPKEEPPHREVPESETPVDTNLIELDTNDDDIVFEDFAR
modifications: bimane (mBr) on C70 of the finger loop
notes: beta-arrestin 1, rat, minimal cysteine and truncated variant (MC-393) with V70C; also called βarr1 V70C-mBr; βarr1 finger loop bimane; source: E. coli BL21 derivative, purified; labeled with monobromobimane, free label removed by SEC
